Source: patent publication US20250346685A1 (published 2025)

Experiments:
[1] = molecular target: T1, human CD3εγ-Fc heterodimer (human); assay: SPR (Biacore T200), antigen amine-coupled on CM5 chip, antibody as analyte, 1:1 model
T1 construct: also called human CD3εγ recombinant protein; human CD3εγ protein
T1 chain 1: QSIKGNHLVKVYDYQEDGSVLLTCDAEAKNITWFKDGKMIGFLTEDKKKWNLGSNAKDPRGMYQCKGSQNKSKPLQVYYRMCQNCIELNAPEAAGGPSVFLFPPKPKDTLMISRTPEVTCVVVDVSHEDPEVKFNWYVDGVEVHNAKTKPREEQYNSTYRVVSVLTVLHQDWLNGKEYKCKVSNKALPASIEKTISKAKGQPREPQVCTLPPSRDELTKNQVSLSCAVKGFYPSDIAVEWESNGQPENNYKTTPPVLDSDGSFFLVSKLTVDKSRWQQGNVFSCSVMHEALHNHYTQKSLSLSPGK
T1 chain 2: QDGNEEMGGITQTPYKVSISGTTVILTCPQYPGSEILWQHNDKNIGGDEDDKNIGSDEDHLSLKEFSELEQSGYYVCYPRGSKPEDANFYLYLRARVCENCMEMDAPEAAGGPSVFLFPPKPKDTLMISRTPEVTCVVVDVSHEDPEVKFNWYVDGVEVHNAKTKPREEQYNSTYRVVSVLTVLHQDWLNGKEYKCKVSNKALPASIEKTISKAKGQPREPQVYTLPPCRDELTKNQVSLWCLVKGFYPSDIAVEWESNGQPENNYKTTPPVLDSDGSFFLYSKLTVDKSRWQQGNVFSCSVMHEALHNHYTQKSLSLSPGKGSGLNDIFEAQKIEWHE
Description: 10 μg/mL human or cynomolgus monkey BCMA or CD3εγ recombinant antigen was bound to a CM5 chip (GE healthcare) by amino conjugating, while the amount of antigen bound was controlled to approximately 200 RU. After baseline plateau, gradient diluted antibodies (7 gradients of 2-fold dilutions from 10 μg/mL) were flowed through the chip at a flow rate of 30 μL/min for a binding time of 350 seconds and a dissociation time of 600 seconds. Kinetic constants were fitted using Biacore T200 evaluation software with a 1:1 binding model.

[2] = molecular target: T2, human CD3 on T cells (Jurkat cells; human peripheral blood CD4+ and CD8+ T-cells) (human, UniProt P07766 23-207); assay: flow cytometry on human peripheral blood CD4+ T-cells
T2 construct: whole, on cells; also called CD4T; CD4 + T
Description: Fresh human peripheral blood was taken and PBMC was isolated by Ficoll. Paque Plu (GE, 17-1440-03). PBMC was adjusted to 5×10⁵ cells/mL with 4% calf serum (Hyclone, SH30626.06), 100 μL/well was added to a 96-well U-plate, the supernatant was centrifuged off and 100 μL of gradient diluted antibody (with starting concentration of 1800 nM, 3-fold dilution, 10 gradients) was added to each well and incubated for 60 min at 4° C. 50 μL/well of Alexa Fluro647 labeled goat anti-human IgG Fc (1:300 dilution) was added to the secondary antibody, with ice bath for 20 min, and 50 μL/well PI added after washing once, incubated for 5 min, and flow cytometer (BD C6) was used for detection. The control antibody REGN5458 was synthesized and prepared according to US20200024356.

B1: BCMA × CD3 κλ003 (bispecific antibody, human IgG4 S228P, kappa, lambda)
light 1: DIVLTQSPASLAVSPGQRATITCRASKSVSTSGYSYMHWYQKKPGQPPKLLIYLASNLESGVPARFSGSGSGTDFTLTINPVEAEDTANYYCQHSRELPWTFGQGTKVEIKRTVAAPSVFIFPPSDEQLKSGTASVVCLLNNFYPREAKVQWKVDNALQSGNSQESVTEQDSKDSTYSLSSTLTLSKADYEKHKVYACEVTHQGLSSPVTKSFNRGEC
heavy 1: QVQLVQSGSELKKPGASVKVSCKASGYIFTNFGMNWVREAPGQGLEWMGWINTYTGEQIYADGFTGRFVFSLDTSASTAYLQISSLKAEDTAVYFCARGEIYYGYDVGFVYWGQGTLVTVSSASTKGPSVFPLAPCSRSTSESTAALGCLVKDYFPEPVTVSWNSGALTSGVHTFPAVLQSSGLYSLSSVVTVPSSSLGTKTYTCNVDHKPSNTKVDKRVESKYGPPCPPCPAPEFEGGPSVFLFPPKPKDTLMISRTPEVTCVVVDVSQEDPEVQFNWYVDGVEVHNAKTKPREEQFNSTYRVVSVLTVLHQDWLNGKEYKCKVSNKGLASSIEKTISKAKGQPREPQVCTLPPSQEEMTKNQVSLSCAVKGFYPSDIAVEWESNGQPENNYKTTPPVLDSDGSFFLVSKLTVDKSRWQEGNVFSCSVMHEALHNHYTQKSLSLSLGK
light 2: QAVVTQEPSLTVSPGGTVTLTCRSSTGAVTTSNYANWVQEKPGQAPRGLIGGTNKRAPWTPARFSGSLLGGKAALTITGAQAEDEAEYYCVLWYSNLWVFGGGTKLTVLGQPKAAPSVTLFPPSSEELQANKATLVCLISDFYPGAVTVAWKADSSPVKAGVETTTPSKQSNNKYAASSYLSLTPEQWKSHRSYSCQVTHEGSTVEKTVAPTECS
heavy 2: EVQLVESGGGLVQPGGSLRLSCAASGFTFNTYAMNWVRKAPGKGLEWVGRIRSKYNNYATYYADSVKDRFTISRDDSKNSLYLQMNSLKTEDTAVYYCVRHGNFGNSYVSWFAYWGQGTLVTVSSASTKGPSVFPLAPCSRSTSESTAALGCLVKDYFPEPVTVSWNSGALTSGVHTFPAVLQSSGLYSLSSVVTVPSSSLGTKTYTCNVDHKPSNTKVDKRVESKYGPPCPPCPAPEFEGGPSVFLFPPKPKDTLMISRTPEVTCVVVDVSQEDPEVQFNWYVDGVEVHNAKTKPREEQFNSTYRVVSVLTVLHQDWLNGKEYKCKVSNKGLASSIEKTISKAKGQPREPQVYTLPPCQEEMTKNQVSLWCLVKGFYPSDIAVEWESNGQPENNYKTTPPVLDSDGSFFLYSKLTVDKSRWQEGNVFSCSVMHEALHNHYTQKSLSLSLGK
notes: also called BCMA×CD3 κλ bispecific antibody
**Q.** With B1 as the binder, how does the Kd [1] read?
**A.** The Kd was 31 nM.

**Q.** What about the EC50 [2] of the same binder?
**A.** Its EC50 is 89 nM.
